Measurements as given in US20250043017A1 (Regeneron, published 2025).
Blank lines part the entries; values can stand above or below the binder they belong to.

Experiments:
[1] = target: T1, human 4-1BB on cells (human, UniProt Q07011 24-255); assay: cell-based or functional assay
[2] = target: T2, human 4-1BB expressed with a C-terminal myc-myc-hexahistidine tag (h4-1BB.mmH) (human); assay: blocking ELISA, 0.25 nM h4-1BB-mmh binding to coated 6His-Flag-h4-1BBL
T2 construct: also called hCD137 (4-1BB) mmH
Experimental: The 4-1BB blocking assay was performed similarly to the PD-L1 blocking assay. 6His-Flag-h4-1BBL protein ([…] in PBS) was coated onto a 96-well microtiter plate overnight at 4 °C. […] The plates were developed using TMB substrate solution (BD Biosciences) and the absorbance at 450 nm was measured on a SpectraMax I3x plate reader.
(§1) Binding data were analyzed using a sigmoidal (four-parameter logistic) dose-response model with GraphPad Prism™ software. […] The percent blocking of tested antibodies at the highest tested concentration of 100 nM was calculated based on the formula shown below: […]

[3] = target: T1, human 4-1BB on cells; assay: cell-based or functional assay; remark: listed apart in the source
[4] = target: T2, human 4-1BB expressed with a C-terminal …; assay: SPR Biacore, 25 C, antibody captured via anti-hFc, h4-1BB.mmH as analyte
Experimental: (§2) The CM5 Biacore sensor surface was derivatized by amine coupling with a monoclonal mouse anti-human Fc antibody. All Biacore binding studies were performed in a buffer composed of 0.01M HEPES pH 7.4, 0.15M NaCl, 3 mM EDTA, 0.05% v/v Surfactant P20 (HBS-EP running buffer). […] Antibody-reagent association was monitored for 5 minutes while dissociation in HBS-EP running buffer was monitored for 10 minutes. At the end of each cycle, the antibody capture surface was regenerated using a 10 sec injection of 20 mM phosphoric acid. All binding kinetics experiments were performed at 25° C.
(§3) Data analysis: The specific SPR-Biacore sensorgrams were obtained by a double referencing procedure. The double referencing was performed by first subtracting the signal of each injection over a reference surface (anti-hFc or anti-mFc) from the signal over the experimental surface (anti-hFc-captured anti-PD-L1×4-1BB antibodies) thereby removing contributions from refractive index changes. In addition, running buffer injections were performed to allow subtraction of the signal changes resulting from the dissociation of captured antibodies or antigens from the coupled anti-hFc or anti-mFc surface. Kinetic association (kₐ) and dissociation (kd) rate constants were determined by fitting the real-time sensorgrams to a 1:1 binding model using Scrubber v2.0c curve fitting software. Binding dissociation equilibrium constants (KD) and dissociative half-lives (t½) were calculated from the kinetic rate constants as: […]

[5] = target: T1, human 4-1BB on cells; assay: flow cytometry, Jurkat/NFkB-Luc/h41BB cells
Experimental: (§4) Binding was detected by using a labeled secondary antibody and measuring fluorescence on a flow cytometer.
(§5) Assay set up: OVCAR-3+/−PD-L1 cells were lifted with trypsin, washed and resuspended in stain buffer (2% FBS in PBS). OVCAR-3 and Jurkat/NFkB-Luc/h41BB cells were counted and added to wells at 200,000 cells/well. Cells, in wells of 96-well round bottom plates, were pelleted by centrifugation and resuspended in 150 ul stain buffer (PBS containing 2% FBS). Plates were once again centrifuged and subsequently 100 ul of stain buffer alone or stain buffer containing antibody, titrated from 200 nM to 12 pM in a 9-point 1:4 dose titration were added to cells. Cells and antibodies were incubated for 30 min on ice and then washed in stain buffer. Cells were resuspended in 2 μg/ml allophycocyanin (APC) conjugated goat-anti human secondary antibody. A secondary antibody alone control was included. Cells and secondary were incubated for 30 min on ice and then washed in stain buffer. After a subsequent wash with PBS (containing no FBS), cells were resuspended in viability dye (reconstituted in DMSO according to the manufacturer's protocol and diluted 1:1000 in PBS) and incubated for 20 min on ice. They were then washed with stain buffer and resuspended in 2% PFA for 30 min at 4 C. After washing they were filtered and analyzed by flow cytometry. EC₅₀ values of the antibodies were determined from a 4 parameter logistic equation over a 9-point dose response curve (including secondary only control) using GraphPad Prism software.

[6] = target: T3, hPD-L1-mFc (human; mouse, UniProt Q9NZQ7 19-239); assay: blocking ELISA, 0.7 nM hPD-L1-mFc binding to coated hPD1-hFc
T3 construct: range 19-239; also called human PD-L1 extracellular domain with mouse IgG2a Fc; not shown: Fc portion of mouse IgG2a at the C-terminus, amino acids E98-K330
Experimental: In the PD-L1 blocking assay, hPD1-hFc protein ([…] in PBS) was coated onto a 96-well microtiter plate overnight at 4° C. […] The plates were then developed using TMB substrate solution (BD Biosciences) according to the manufacturer's recommended procedure and the absorbance at 450 nm was measured on a SpectraMax I3x plate reader.
as §1

[7] = target: T4, human PD-L1 on cells (human, UniProt Q9NZQ7 19-290); assay: flow cytometry, OVCAR3 cells (low endogenous PD-L1)
T4 construct: whole, on cells; the cell line stands under assay; also called hPD-L1; OVCAR3/hPD-L1
Experimental: as §4
as §5, with “After a subsequent wash with PBS (containing no FBS), cells were resuspended in viability dye (reconstituted in DMSO according to the manufacturer's protocol and diluted 1:1000 in PBS) and incubated for 20 min on ice. They were then washed with stain buffer and resuspended in 2% PFA for 30 min at 4 C.” left out

[8] = target: human PD-L1 expressed with a C-terminal myc-myc-hexahistidine tag (hPD-L1.mmH) (human); assay: SPR Biacore, 25 C, antibody captured via anti-hFc, hPD-L1.mmH as analyte
Experimental: as §2, with “a 12” for “a 10”
as §3

[9] = target: T4, human PD-L1 on cells; assay: cell-based or functional assay
[10] = target: T4, human PD-L1 on cells; assay: flow cytometry, OVCAR3/hPD-L1 cells
Experimental: as §4
as §5, with “After a subsequent wash with PBS (containing no FBS), cells were resuspended in viability dye (reconstituted in DMSO according to the manufacturer's protocol and diluted 1:1000 in PBS) and incubated for 20 min on ice. They were then washed with stain buffer and resuspended in 2% PFA for 30 min at 4 C.” left out

[11] = target: T4, human PD-L1 on cells; assay: flow cytometry, Jurkat/NFkB-Luc/h41BB cells (potential low endogenous PD-L1)
Experimental: as §4
as §5, with “After a subsequent wash with PBS (containing no FBS), cells were resuspended in viability dye (reconstituted in DMSO according to the manufacturer's protocol and diluted 1:1000 in PBS) and incubated for 20 min on ice. They were then washed with stain buffer and resuspended in 2% PFA for 30 min at 4 C.” left out

T2 sequence (chain, as listed by the source limits assumed): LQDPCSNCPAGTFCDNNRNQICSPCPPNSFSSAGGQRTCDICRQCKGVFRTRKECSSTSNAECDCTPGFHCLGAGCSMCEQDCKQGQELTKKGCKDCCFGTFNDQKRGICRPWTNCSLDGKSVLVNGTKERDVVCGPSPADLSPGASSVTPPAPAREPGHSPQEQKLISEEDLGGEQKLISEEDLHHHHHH
T1 sequence (Q07011 24-255): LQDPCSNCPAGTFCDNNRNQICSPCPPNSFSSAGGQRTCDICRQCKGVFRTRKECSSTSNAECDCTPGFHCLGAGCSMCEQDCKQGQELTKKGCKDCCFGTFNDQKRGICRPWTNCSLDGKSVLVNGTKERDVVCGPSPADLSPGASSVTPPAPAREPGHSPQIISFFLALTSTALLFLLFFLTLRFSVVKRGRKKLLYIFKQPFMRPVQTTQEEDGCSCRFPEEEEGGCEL
human PD-L1 expressed with a C-terminal myc-myc-hexahistidine tag (hPD-L1.mmH) (human), sequence (chain, as listed by the source limits assumed): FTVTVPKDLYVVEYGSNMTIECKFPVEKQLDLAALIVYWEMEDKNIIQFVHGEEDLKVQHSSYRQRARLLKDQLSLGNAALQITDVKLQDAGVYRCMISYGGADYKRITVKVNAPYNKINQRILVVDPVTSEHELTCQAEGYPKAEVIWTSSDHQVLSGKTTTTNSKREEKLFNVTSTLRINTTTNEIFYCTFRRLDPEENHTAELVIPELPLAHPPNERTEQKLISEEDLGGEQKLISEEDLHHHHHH
T4 sequence (Q9NZQ7 19-290): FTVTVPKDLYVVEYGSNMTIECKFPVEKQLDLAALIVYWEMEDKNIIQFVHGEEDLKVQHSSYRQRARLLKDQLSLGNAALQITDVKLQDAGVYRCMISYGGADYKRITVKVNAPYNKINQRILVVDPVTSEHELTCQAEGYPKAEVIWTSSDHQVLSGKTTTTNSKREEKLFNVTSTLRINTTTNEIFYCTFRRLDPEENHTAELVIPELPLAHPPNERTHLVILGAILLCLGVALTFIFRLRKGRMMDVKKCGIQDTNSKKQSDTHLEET
T3 sequence (Q9NZQ7 19-239 limits assumed): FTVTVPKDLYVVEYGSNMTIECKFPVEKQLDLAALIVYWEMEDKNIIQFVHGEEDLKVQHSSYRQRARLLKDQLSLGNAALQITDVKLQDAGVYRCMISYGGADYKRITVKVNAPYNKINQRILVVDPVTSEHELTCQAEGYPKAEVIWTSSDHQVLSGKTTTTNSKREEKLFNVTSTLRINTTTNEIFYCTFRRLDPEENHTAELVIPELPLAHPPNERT

IL2 release EC50, human CD3+ T cells + HEK293/hCD20/hPSMA/hPD-L1 + CD20xCD3 [1]: 663 pM
IL2 release MAX, human CD3+ T cells + HEK293/hCD20/hPSMA + CD20xCD3 [1]: 9.6 pg/mL
IL2 release MAX, human CD3+ T cells + HEK293/hCD20/hPSMA, no CD20xCD3 [1]: 8.9 pg/mL
IL2 release MAX, human CD3+ T cells + HEK293/hCD20/hPSMA/hPD-L1 + CD20xCD3 [1]: 52.5 pg/mL
IL2 release MAX, human CD3+ T cells + HEK293/hCD20/hPSMA/hPD-L1, no CD20xCD3 [1]: 8.9 pg/mL
% Blocking at 100 nM mAb [2]: 85%
NFkB-luciferase EC50, Jurkat/NFkB-Luc/h41BB + HEK293/hCD20/hPSMA/hPD-L1 [3]: 4.48 nM
NFkB-luciferase MAX (RLU), Jurkat/NFkB-Luc/h41BB + HEK293/hCD20/hPSMA [3]: 120000 RLU
NFkB-luciferase MAX (RLU), Jurkat/NFkB-Luc/h41BB + HEK293/hCD20/hPSMA/hPD-L1 [3]: 973000 RLU
270 nM h4-1BB-mmH Bind (RU) [4]: 30.7 RU
Kd [4]: 30.3 nM
koff [4]: 0.021 s⁻¹
kon [4]: 692000 M⁻¹ s⁻¹
t½ [4]: 0.5 min
Fold change (max MFI over secondary antibody alone) [5]: 36.2 fold
Max [gMFI] [5]: 82000 gMFI
B1: REGN6190 (bispecific antibody, human IgG4 S228P, kappa)
heavy 1: EVQLVESGGGLVQPGRSLRLSCAASGFTFDDYALHWVRQAPGKGLEWVSGISWTGGTIDYADSVKGRFTISRDNAKNSLYLQMSSLRTEDTAIYYCTRDIRGNWKYGGWFDPWGQGTLVTVSSASTKGPSVFPLAPCSRSTSESTAALGCLVKDYFPEPVTVSWNSGALTSGVHTFPAVLQSSGLYSLSSVVTVPSSSLGTKTYTCNVDHKPSNTKVDKRVESKYGPPCPPCPAPPVAGPSVFLFPPKPKDTLMISRTPEVTCVVVDVSQEDPEVQFNWYVDGVEVHNAKTKPREEQFNSTYRVVSVLTVLHQDWLNGKEYKCKVSNKGLPSSIEKTISKAKGQPREPQVYTLPPSQEEMTKNQVSLTCLVKGFYPSDIAVEWESNGQPENNYKTTPPVLDSDGSFFLYSRLTVDKSRWQEGNVFSCSVMHEALHNHYTQKSLSLSLGK
heavy 2: EVQLVESGGGLVQPGGSLRLSCEASGFTFSSYEMNWVRQAPGKGLEWISHISSSGSSIYYADSVQGRFTISRDKAKNSLYLQMNSLRAEDTAVYYCTREGFEYGSSSGLKYYYYGLDVWGQGTTVTVSSASTKGPSVFPLAPCSRSTSESTAALGCLVKDYFPEPVTVSWNSGALTSGVHTFPAVLQSSGLYSLSSVVTVPSSSLGTKTYTCNVDHKPSNTKVDKRVESKYGPPCPPCPAPPVAGPSVFLFPPKPKDTLMISRTPEVTCVVVDVSQEDPEVQFNWYVDGVEVHNAKTKPREEQFNSTYRVVSVLTVLHQDWLNGKEYKCKVSNKGLPSSIEKTISKAKGQPREPQVYTLPPSQEEMTKNQVSLTCLVKGFYPSDIAVEWESNGQPENNYKTTPPVLDSDGSFFLYSRLTVDKSRWQEGNVFSCSVMHEALHNRFTQKSLSLSPGK
light: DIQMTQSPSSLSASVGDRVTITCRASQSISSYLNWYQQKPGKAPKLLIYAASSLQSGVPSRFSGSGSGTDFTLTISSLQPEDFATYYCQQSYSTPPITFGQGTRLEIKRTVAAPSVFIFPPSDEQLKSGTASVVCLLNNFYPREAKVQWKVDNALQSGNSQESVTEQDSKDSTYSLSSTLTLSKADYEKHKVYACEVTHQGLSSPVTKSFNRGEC
notes: common light chain 1-39; also called R6190; PD-L1x4-1BB REGN6190

IC50 [6]: 0.52 nM
EC50 [7]: 8.4 pM
Fold change (max MFI over secondary antibody alone) [7]: 4.4 fold
Kd [8]: 0.13 nM
koff [8]: 7.42e-05 s⁻¹
kon [8]: 571000 M⁻¹ s⁻¹
t½ [8]: 156 min
AP-1 luciferase EC50, Jurkat/AP1-luc/hPD1 + WSU-DLCL2/hPD-L1 + CD20xCD3 [9]: 6.51 pM
IL2 release MAX, human CD3+ T cells + HEK293/hCD20/hPSMA + CD20xCD3 [1]: 13.4 pg/mL
IL2 release MAX, human CD3+ T cells + HEK293/hCD20/hPSMA, no CD20xCD3 [1]: 3.5 pg/mL
IL2 release MAX, human CD3+ T cells + HEK293/hCD20/hPSMA/hPD-L1 + CD20xCD3 [1]: 9.3 pg/mL
IL2 release MAX, human CD3+ T cells + HEK293/hCD20/hPSMA/hPD-L1, no CD20xCD3 [1]: 3.5 pg/mL
% Blocking at 100 nM mAb [2]: 0%
EC50 [10]: 0.86 nM
Fold change (max MFI over secondary antibody alone) [10]: 2200 fold
NFkB-luciferase MAX (RLU), Jurkat/NFkB-Luc/h41BB + HEK293/hCD20/hPSMA [3]: 60900 RLU
NFkB-luciferase MAX (RLU), Jurkat/NFkB-Luc/h41BB + HEK293/hCD20/hPSMA/hPD-L1 [3]: 70900 RLU
270 nM h4-1BB-mmH Bind (RU) [4]: 2 RU
binding result [4]: no binding (tested: 270 nM)
Fold change (max MFI over secondary antibody alone) [11]: 9.5 fold
B2: mAb9364 (antibody, V domains shown)
VH: EVQLVESGGGLVQPGRSLRLSCAASGFTFDDYALHWVRQAPGKGLEWVSGISWTGGTIDYADSVKGRFTISRDNAKNSLYLQMSSLRTEDTAIYYCTRDIRGNWKYGGWFDPWGQGTLVTVSS
VL: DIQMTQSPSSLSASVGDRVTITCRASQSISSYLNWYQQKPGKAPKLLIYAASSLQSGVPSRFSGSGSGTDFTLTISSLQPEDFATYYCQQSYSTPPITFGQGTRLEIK
notes: bivalent parental anti-PD-L1 antibody; captured by anti-human Fc); also called 9364P3; parental bivalent PD-L1 antibody
